Experimental data published in article PMC11613296.

Target: Tau (2N4R Tau; Tau(291–391)) 2-441 (UniProt P10636)
Assay: ELISA, immobilised Tau(291–391), soluble 2N4R Tau
Conditions: reference: unmodified (WT) Tau(291–391)

| Substance | binding against the reference (sites S352) | binding against the reference (sites S356) |
| --- | --- | --- |
| Tau (2N4R Tau; Tau(291–391)) 291-391 (from UniProt P10636-8) pS352 Tau(291–391) | weaker |  |
| Tau (2N4R Tau; Tau(291–391)) 291-391 (from UniProt P10636-8) pS356 Tau(291–391) |  | weaker |
